This is an account of results in US11026972B2, “Methods for generating macrophages with enhanced cancer phagocytosis” (Georgia State University Research Foundation, Inc., priority 2016, dated 2021).

The test system of the experiment is B16 melanoma. Description: B16 melanoma pulmonary metastases model. The class given is in vivo, mouse. The settings on record: SIRPα^−/− mice. The procedure: Mouse models of B16 melanoma: B16-F10 melanoma cells (American Type Culture Collection) were cultured in DMEM with 8% FBS. B16 melanoma pulmonary metastases were established by intravenous (i.v.) injection of B16 cells (5×10^5, >95% viability) suspended in 100 μl PBS through the tail vein. The mice were allowed to live to reach humane endpoints or sacrificed on day 15 post B16 inoculation for analyses of melanoma formation in the lungs and other organs. To test macrophage eradication of B16 in vivo, recombinant murine IL-17 (20 μg) was given a day after the B16 implantation and then again two additional administrations three and six days later (total 3 administrations). For SIRPα^−/− mice survived first B16 injection, B16 cells (5×10^5) were injected (i.v.) once again three months without further IL-17 administration. […] For serum treatment, WT mice with B16 inoculation were given serum samples (150 μl, every three days, 3×) derived from control mice or B16-eradicated SIRPα^−/− mice. In other experiments, 2×10^7 splenocytes from control mice or B16-eradicated SIRPα^−/− mice were transferred into WT mice. After 10 days, B16 cells were inoculated into the recipient mice and melanoma development was examined.

B1: IL-17: recombinant murine cytokine interleukin IL-17 (also known as IL-17A), PeproTech (protein, UniProt Q62386 26-158, looked up)
Interleukin-17A: AAIIPQSSACPNTEAKDFLQNVKVNLKVFNSLGAKVSSRRPSDYLNRSTSPWTLHRNEDPDRYPSVIWEAQCRHQRCVNAEGKLDHHMNSVLIQQEILVLKREPESCPFTFRVEKMLVGVGCTCVASIVRQAA
In the case of B1, the B16 melanoma entry is listed as “eliminated B16 melanoma”.
